The record followed here is US20110118131A1 (published 2011).

B1: XPA23 light chain D28W (Fab, V domains shown)
VH: EVQLLESGGGLVQPGGSLRLSCAASGFTFSKYFMFWVRQAPGKGLEWVSVISPSGGMTRYADSVKGRFTISRDNSKNTLYLQMNSLRAEDTAVYYCARVGYGGNSDYWGQGTLVTVSS
VL: DIQMTQSPSSVSASVGDRLTIICRASQWINRWLAWYQQTPGNAPKLLIHSATSLQSGVPSRFSGSGSGTDFTLTINSLQPEDFATYYCQQADSFPLTFGGGTKVEIK
B2: XPA23 light chain F94N (Fab, V domains shown)
VH: B1 VH
VL: B1 VL with W28D, F94N
B3: XPA23 light chain L96H (Fab, V domains shown)
VH: B1 VH
VL: B1 VL with W28D, L96H
B4: XPA23 light chain F94E (Fab, V domains shown)
VH: B1 VH
VL: B1 VL with W28D, F94E
B5: XPA23 light chain H49Y (Fab, V domains shown)
VH: B1 VH
VL: B1 VL with W28D, H49Y
B6: XPA23 light chain H49I (Fab, V domains shown)
VH: B1 VH
VL: B1 VL with W28D, H49I
B7: XPA23 light chain H49K (Fab, V domains shown)
VH: B1 VH
VL: B1 VL with W28D, H49K
B8: XPA23 light chain D92W (Fab, V domains shown)
VH: B1 VH
VL: B1 VL with W28D, D92W
B9: XPA23 light chain F94H (Fab, V domains shown)
VH: B1 VH
VL: B1 VL with W28D, F94H
B10: XPA23 light chain L96D (Fab, V domains shown)
VH: B1 VH
VL: B1 VL with W28D, L96D
B11: XPA23 light chain H49F (Fab, V domains shown)
VH: B1 VH
VL: B1 VL with W28D, H49F
B12: XPA23 light chain H49S (Fab, V domains shown)
VH: B1 VH
VL: B1 VL with W28D, H49S
B13: XPA23 light chain F94S (Fab, V domains shown)
VH: B1 VH
VL: B1 VL with W28D, F94S
B14: XPA23 light chain L96F (Fab, V domains shown)
VH: B1 VH
VL: B1 VL with W28D, L96F
B15: XPA23 light chain H49L (Fab, V domains shown)
VH: B1 VH
VL: B1 VL with W28D, H49L
B16: XPA23 light chain D92R (Fab, V domains shown)
VH: B1 VH
VL: B1 VL with W28D, D92R
B17: XPA23 light chain F94Y (Fab, V domains shown)
VH: B1 VH
VL: B1 VL with W28D, F94Y
B18: XPA23 light chain H49R (Fab, V domains shown)
VH: B1 VH
VL: B1 VL with W28D, H49R
B19: XPA23 light chain D92E (Fab, V domains shown)
VH: B1 VH
VL: B1 VL with W28D, D92E
B20: XPA23 light chain L96E (Fab, V domains shown)
VH: B1 VH
VL: B1 VL with W28D, L96E
B21: XPA23 light chain H49T (Fab, V domains shown)
VH: B1 VH
VL: B1 VL with W28D, H49T
B22: XPA23 light chain H49A (Fab, V domains shown)
VH: B1 VH
VL: B1 VL with W28D, H49A
B23: XPA23 light chain D28Y (Fab, V domains shown)
VH: B1 VH
VL: B1 VL with W28Y
B24: XPA23 light chain H49D (Fab, V domains shown)
VH: B1 VH
VL: B1 VL with W28D, H49D
B25: XPA23 light chain D92H (Fab, V domains shown)
VH: B1 VH
VL: B1 VL with W28D, D92H
B26: XPA23 light chain F94D (Fab, V domains shown)
VH: B1 VH
VL: B1 VL with W28D, F94D
B27: XPA23 light chain H49N (Fab, V domains shown)
VH: B1 VH
VL: B1 VL with W28D, H49N
B28: XPA23 light chain H49G (Fab, V domains shown)
VH: B1 VH
VL: B1 VL with W28D, H49G
B29: XPA23 light chain H49Q (Fab, V domains shown)
VH: B1 VH
VL: B1 VL with W28D, H49Q
B30: XPA23 light chain D92S (Fab, V domains shown)
VH: B1 VH
VL: B1 VL with W28D, D92S
B31: XPA23 light chain D92Y (Fab, V domains shown)
VH: B1 VH
VL: B1 VL with W28D, D92Y
B32: XPA23 light chain D92N (Fab, V domains shown)
VH: B1 VH
VL: B1 VL with W28D, D92N
B33: XPA23 light chain H49E (Fab, V domains shown)
VH: B1 VH
VL: B1 VL with W28D, H49E
B34: XPA23 light chain F94W (Fab, V domains shown)
VH: B1 VH
VL: B1 VL with W28D, F94W
B35: XPA23 light chain D92F (Fab, V domains shown)
VH: B1 VH
VL: B1 VL with W28D, D92F
B36: XPA23 light chain H49P (Fab, V domains shown)
VH: B1 VH
VL: B1 VL with W28D, H49P
B37: XPA23 light chain F94Q (Fab, V domains shown)
VH: B1 VH
VL: B1 VL with W28D, F94Q
B38: XPA23 light chain D92K (Fab, V domains shown)
VH: B1 VH
VL: B1 VL with W28D, D92K
B39: XPA23 light chain F94R (Fab, V domains shown)
VH: B1 VH
VL: B1 VL with W28D, F94R
B40: XPA23 light chain F94K (Fab, V domains shown)
VH: B1 VH
VL: B1 VL with W28D, F94K
B41: XPA23 light chain D92Q (Fab, V domains shown)
VH: B1 VH
VL: B1 VL with W28D, D92Q
B42: XPA23 light chain H49V (Fab, V domains shown)
VH: B1 VH
VL: B1 VL with W28D, H49V
B43: XPA23 light chain H49W (Fab, V domains shown)
VH: B1 VH
VL: B1 VL with W28D, H49W

Where a chain is given by its changes, count along the chain named. Numbers in names are those of the source.

This assay addresses T1, IL-1β (UniProt P01584 117-269).
T1 construct: Antigen immobilised on the Biacore chip
Nature of the assay: Biacore, periplasmic extract.
In the case of B1, the “fold difference in affinity vs original” value amounted to 3.81 fold.

B2: the binding result was “no binding”.

Consider B3, for which the “fold difference in affinity vs original” value amounted to 0.07 fold.

In the case of B4, the binding result is “no binding”.

In the case of B5, the “fold difference in affinity vs original” value came out at 0.52 fold.

Regarding B6, the binding result was “no binding”.

In the case of B7, the “fold difference in affinity vs original” value was 0.1 fold.

Turning to B8, the “fold difference in affinity vs original” value was found to be 0.12 fold.

On to B9, for which the binding result is “no binding”.

Regarding B10, the binding result is reported as “no binding”.

Regarding B11, the “fold difference in affinity vs original” value came to 0.5 fold.

Consider B12, for which the “fold difference in affinity vs original” value was determined as 0.14 fold.

As to B13, the binding result is reported as “no binding”.

Regarding B14, the “fold difference in affinity vs original” value was 0.28 fold.

For B15, the “fold difference in affinity vs original” value is 0.07 fold.

B16: the binding result is reported as “no binding”.

Take B17: the binding result is recorded as “no binding”.

For the molecule B18, the “fold difference in affinity vs original” value was 0.21 fold.

With B19, the “fold difference in affinity vs original” value is 0.99 fold.

For the molecule B20, the binding result is recorded as “no binding”.

For B21, the binding result was “no binding”.

In the case of B22, the “fold difference in affinity vs original” value was 0.23 fold.

B23: the “fold difference in affinity vs original” value is 1.45 fold.

Turning to B24, the “fold difference in affinity vs original” value was found to be 0.11 fold.

For the molecule B25, the “fold difference in affinity vs original” value stood at 0.63 fold.

Regarding B26, the binding result is “no binding”.

For the molecule B27, the “fold difference in affinity vs original” value turned out to be 0.31 fold.

B28: the binding result was “no binding”.

On to B29, for which the binding result is “no binding”.

Take B30: the “fold difference in affinity vs original” value was 6.59 fold.

B31: the binding result is listed as “no binding”.

On to B32, for which the “fold difference in affinity vs original” value was 0.67 fold.

For B33, the binding result is “no binding”.

Consider B34, for which the binding result was “no binding”.

B35: the “fold difference in affinity vs original” value stood at 0.26 fold.

On to B36, for which the “fold difference in affinity vs original” value turned out to be 0.86 fold.

On to B37, for which the binding result is “no binding”.

Consider B38, for which the “fold difference in affinity vs original” value came to 0.23 fold.

With B39, the binding result is “no binding”.

As to B40, the binding result is “no binding”.

Take B41: the “fold difference in affinity vs original” value was found to be 0.56 fold.

As for B42, the binding result was “no binding”.

Take B43: the “fold difference in affinity vs original” value is 0.21 fold.
